Laboratory results published in patent publication US11702666B2, “Cell-based assay for determining activity in the retinoblastoma pathway” (Medical Diagnostic Laboratories, LLC, priority 2017, dated 2023).
Values belong to the molecule of their own block, whether it stands above or below them.

Tests used:
CDK4 [1] = biological target: T1, CDK4 (Homo sapiens, UniProt P11802); experiment: p16 activity assay with CDK4 (NanoBiT, cell line #11); type: cell-based; settings: for signal of p16 mutant (in words): loss of function mutants; for Observed function: p16 (CDKN2A) mutants, with CDK4
T1 construct: expressed in transfected cells; host or cells: HEK293 CDK4/CDK6 double-knockout cells stably expressing E2F1-Dp-1-LB (clone #11); early experiments in plain HEK293
From the text: (§1) We developed an assay that could measure the interaction between Rb, E2F1 and Dp-1. When the Rb and E2F1 proteins are in close proximity or in complex, a light signal is observed. For the purpose of the assay, split-luciferase complementation was used to measure the interaction between Rb and E2F1, which served as a surrogate measure of CDK4/6 activity and the ability of CDK4/6 to respond to the natural inhibitor p16. The NanoBiT assay system by Promega (Madison, Wis.; Dixon et al., 2015, ACS ChemBiol) was used in the split luciferase complementation design. FIG. 24 depicts a design of a signal system to measure p16 activity. Under basal conditions inside the cell, Rb is active and interacts with the E2F1/Dp-1 heterodimer. However, in the presence of the CDK4 or CDK6, Rb gets phosphorylated and released from the interacting complex. In the presence of the natural inhibitor p16, CDK4/6 is no longer available to phosphorylate Rb and thus promoting the Rb/E2F1-Dp-1 complex formation.
For the purpose of the current assay, the stable cell line #11 that we generated for the CDK activity assay was used and described above. HEK293 CDK DKO cells containing E2F1-Dp-1-LB was transiently transfected with CDK4/CDK6, CyclinD1, and SB-Rb. The transfected cells were then exposed to the natural inhibitor p16 (FIG. 25). When CDK4 or CDK6 is present, a decrease in activity was observed as Rb gets phosphorylated resulting in no Rb/E2F1-Dp-1 interaction. […] The data presented was a sample experiment where each condition was performed in triplicate and represented mean+SD.
The conditions of the assay were optimized by using different p16 amounts and cell numbers (FIGS. 25A and 25B). Based on the data generated, it was decided that using 0.2×10^6 cells/ml and 10 ng of p16 would be preferable.
To examine the ability of the assay to detect variants in CDKN2A that affect function, known loss of function mutants and unknown COSMIC mutants were created. Wild-type or mutated CDKN2A were prepared in a manner similar to that previously indicated. […] Therefore the p16 activity assay is capable of determining the relative activity level of p16 mutants. The data provided is in Luminescence (RLU) of a single experiment with each condition performed in triplicate and represent average+SD. Summary Table 13 reports p16 mutants tested.
In addition to check functional state of p16 mutants, p16 activity assay can be used to look at p16 inhibition response of different CDK4 and CDK6 mutants. Different response of WT CDK4 and CDK6 and hyperactive mutants of CDK4 (R24A) and CDK6 (R31C) is shown on FIG. 28. […] The p16 activity assay is so sensitive and specific that hyperactive CDK4 and CDK6 mutants can show different response to mutant p16.

CDK6 = biological target: T2, CDK6 (Homo sapiens, UniProt Q00534); experiment: p16 activity assay with CDK6 (NanoBiT, cell line #11); type: cell-based; settings: CDK6, CyclinD1, SB-Rb transfected cell line #11
T2 construct: expressed in transfected cells; host or cells: HEK293 CDK4/CDK6 double-knockout cells stably expressing E2F1-Dp-1-LB (clone #11); early experiments in plain HEK293
From the text: as §1
For the purpose of the current assay, the stable cell line #11 that we generated for the CDK activity assay was used and described above. HEK293 CDK DKO cells containing E2F1-Dp-1-LB was transiently transfected with CDK4/CDK6, CyclinD1, and SB-Rb. The transfected cells were then exposed to the natural inhibitor p16 (FIG. 25). […]

CDK4 [2] = settings: p16 (CDKN2A) mutants; cited from earlier work
Rb/E2F1-Dp-1 complex [3] = experiment: CDK4 mutant activity / drug resistance in NanoBiT assay, stable cell line #11; type: cell-based, human; settings: CDK4 mutants, compared to the WT (being 100%)
Experimental: A linear expression cassette of mutated CDK4 or CDK6 was generated by PCR mediated overlapping extension method. A pair of forward and reverse primers containing the targeted mutations was designed. The mutated codon was located in the middle of a primer flanked by 18-21 nucleotides on each side. Two PCRs (named as PCR #1 and PCR #2 in FIG. 1) were performed using UF-CMV forward and mutated reverse primers, or mutated forward and BGH-UR primers. The PCR products were cleaned up by ExoSAP-IT® (Affymetrix) to remove unconsumed dNTPs and primers. The treated PCR products were mixed together followed by dilution with water. A second round of PCR was performed using the diluted PCR mixture, and the UF and UR primers (FIG. 1). The amplified products were gel-purified. The DNA concentration was quantitated by the optical density at 260 nm using Nanodrop. The targeted mutations were incorporated in the CDK4 or CDK6 genes during the PCR mediated overlapping extension method. The introduced mutations were confirmed by the DNA sequencing.
To examine the ability of the assay to detect variants in CDK4 or CDK6 that affect function, kinase dead mutants and COSMIC (Catalogue Of Somatic Mutations in cancer) unknown mutants were created. For comparison, hyperactive CDK4 or CDK6 mutants known to be hyperactive due to less binding to natural inhibitor p16 were also created. The mutations in CDK4 or CDK6 were created by site-directed mutagenesis. WT or mutated CDK4 or CDK6 along with the CyclinD1 and SB-Rb were co-transfected, under similar conditions as previously indicated (see FIG. 9).
To examine the specificity of the assay, particular CDK4 kinase dead mutants were created. Modifications to D158 were made by changing aspartate to nonpolar alanine (D158A) or positively charged arginine (D158R). […] The mutations in CDK4 were created by site-directed mutagenesis. WT or mutated CDK4 along with the CyclinD1 and SB-Rb was co-transfected into the #11 cell line, under the same conditions as previously indicated. […] Kinase dead mutants have the high signal due to inability to phosphorylate Rb.
Computer modeling was used to reveal the drug-binding pocket and predict drug-resistant mutants. The mutations in CDK4 and CDK6 were created by site-directed mutagenesis. WT or mutated CDK4 or CDK6 along with the CyclinD1 and SB-Rb was co-transfected into #11 cell line, under the same conditions as previously indicated. […] Dose response curves are presented on FIG. 13A and FIG. 13B. Activity of other mutants was very similar to the WT or KD.
CDK4 and CDK6 mutants with known function and unknown function taken from the COSMIC database were analyzed in the present assay and are summarized in Table 7A and Table 7B. The mutants were classified according to their activity. Table 7A and Table 7B also show the number of counts per mutant in the COSMIC database, type of cancer, and luciferase activity compared to the WT (being 100%).

Rb/E2F1-Dp-1 complex [4] = settings: CDK4 mutants, literature ref.; Hyper = hyperactive, KD = kinase dead; cited from earlier work

T1 sequence (P11802 2-303): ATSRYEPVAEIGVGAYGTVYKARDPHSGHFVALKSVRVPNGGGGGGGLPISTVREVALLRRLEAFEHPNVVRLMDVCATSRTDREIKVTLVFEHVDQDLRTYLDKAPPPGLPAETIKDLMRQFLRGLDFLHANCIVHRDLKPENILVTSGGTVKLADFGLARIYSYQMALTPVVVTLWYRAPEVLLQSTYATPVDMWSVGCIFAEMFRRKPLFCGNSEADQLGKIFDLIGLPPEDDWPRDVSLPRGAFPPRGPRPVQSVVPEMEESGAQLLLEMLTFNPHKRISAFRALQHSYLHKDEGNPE
T2 sequence (Q00534 whole entry): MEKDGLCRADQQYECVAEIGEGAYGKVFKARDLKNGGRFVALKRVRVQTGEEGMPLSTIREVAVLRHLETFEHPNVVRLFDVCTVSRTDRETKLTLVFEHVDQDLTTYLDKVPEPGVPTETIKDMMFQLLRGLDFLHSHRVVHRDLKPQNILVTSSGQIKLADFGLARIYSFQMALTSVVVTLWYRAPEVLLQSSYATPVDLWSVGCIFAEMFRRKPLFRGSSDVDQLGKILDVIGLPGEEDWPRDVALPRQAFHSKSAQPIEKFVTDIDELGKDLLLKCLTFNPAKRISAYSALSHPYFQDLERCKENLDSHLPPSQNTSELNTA

B2: p16 D14G: p16 (CDKN2A) mutant (protein)
chain: MEPAAGSSMEPSAGWLATAAARGRVEEVRALLEAGALPNAPNSYGRRPIQVMMMGSARVAELLLLHGAEPNCADPATLTRPVHDAAREGFLDTLVVLHRAGARLDVRDAWGRLPVDLAEELGHRDVARYLRAAAGGTRGSNHARIDAAEGPSDIPD
Observed function (CDK4 [1]): Normal

B4: p16 A148T: p16 (CDKN2A) mutant (protein)
chain: MEPAAGSSMEPSADWLATAAARGRVEEVRALLEAGALPNAPNSYGRRPIQVMMMGSARVAELLLLHGAEPNCADPATLTRPVHDAAREGFLDTLVVLHRAGARLDVRDAWGRLPVDLAEELGHRDVARYLRAAAGGTRGSNHARIDATEGPSDIPD
Literature reported function (CDK4 [2]): Normal
Observed function (CDK4 [1]): Normal

B6: p16 G101W: p16 (CDKN2A) mutant (protein)
chain: MEPAAGSSMEPSADWLATAAARGRVEEVRALLEAGALPNAPNSYGRRPIQVMMMGSARVAELLLLHGAEPNCADPATLTRPVHDAAREGFLDTLVVLHRAWARLDVRDAWGRLPVDLAEELGHRDVARYLRAAAGGTRGSNHARIDAAEGPSDIPD
Observed function (CDK4 [1]): Reduced

B8: p16 A36G: p16 (CDKN2A) mutant (protein)
chain: MEPAAGSSMEPSADWLATAAARGRVEEVRALLEAGGLPNAPNSYGRRPIQVMMMGSARVAELLLLHGAEPNCADPATLTRPVHDAAREGFLDTLVVLHRAGARLDVRDAWGRLPVDLAEELGHRDVARYLRAAAGGTRGSNHARIDAAEGPSDIPD
Observed function (CDK4 [1]): Normal

B10: p16 D108N: p16 (CDKN2A) mutant (protein)
chain: MEPAAGSSMEPSADWLATAAARGRVEEVRALLEAGALPNAPNSYGRRPIQVMMMGSARVAELLLLHGAEPNCADPATLTRPVHDAAREGFLDTLVVLHRAGARLDVRNAWGRLPVDLAEELGHRDVARYLRAAAGGTRGSNHARIDAAEGPSDIPD
Observed function (CDK4 [1]): Normal

B11: CDK4 K22A: CDK4 mutant, literature hyperactive (protein, UniProt P11802 2-303, looked up, variant K22A)
Cyclin-dependent kinase 4: ATSRYEPVAEIGVGAYGTVYAARDPHSGHFVALKSVRVPNGGGGGGGLPISTVREVALLRRLEAFEHPNVVRLMDVCATSRTDREIKVTLVFEHVDQDLRTYLDKAPPPGLPAETIKDLMRQFLRGLDFLHANCIVHRDLKPENILVTSGGTVKLADFGLARIYSYQMALTPVVVTLWYRAPEVLLQSTYATPVDMWSVGCIFAEMFRRKPLFCGNSEADQLGKIFDLIGLPPEDDWPRDVSLPRGAFPPRGPRPVQSVVPEMEESGAQLLLEMLTFNPHKRISAFRALQHSYLHKDEGNPE
Luc. activity (/wt) (Rb/E2F1-Dp-1 complex [3]): 67.5%
Reported activity (Rb/E2F1-Dp-1 complex [4]): Hyper

More lines, main results first:

luminescence with treatment of p16 (CDK4 [1]; CDK4, CyclinD1, SB-Rb transfected cell line #11): increase in luminescence
luminescence with treatment of p16 (CDK6): increase in luminescence
Molecule: p16: cyclin-dependent kinase inhibitor 2A, natural inhibitor of CDK4 and CDK6, encoded by CDKN2A

signal of p16 mutant (in words) (CDK4 [1]): close to the baseline
B1: p16 V126D: p16 (CDKN2A) mutant (protein)
chain: MEPAAGSSMEPSADWLATAAARGRVEEVRALLEAGALPNAPNSYGRRPIQVMMMGSARVAELLLLHGAEPNCADPATLTRPVHDAAREGFLDTLVVLHRAGARLDVRDAWGRLPVDLAEELGHRDDARYLRAAAGGTRGSNHARIDAAEGPSDIPD

Observed function (CDK4 [1]): Normal
B3: p16 S56N: p16 (CDKN2A) mutant (protein)
chain: MEPAAGSSMEPSADWLATAAARGRVEEVRALLEAGALPNAPNSYGRRPIQVMMMGNARVAELLLLHGAEPNCADPATLTRPVHDAAREGFLDTLVVLHRAGARLDVRDAWGRLPVDLAEELGHRDVARYLRAAAGGTRGSNHARIDAAEGPSDIPD

Observed function (CDK4 [1]): Normal
B5: p16 R144C: p16 (CDKN2A) mutant (protein)
chain: MEPAAGSSMEPSADWLATAAARGRVEEVRALLEAGALPNAPNSYGRRPIQVMMMGSARVAELLLLHGAEPNCADPATLTRPVHDAAREGFLDTLVVLHRAGARLDVRDAWGRLPVDLAEELGHRDVARYLRAAAGGTRGSNHACIDAAEGPSDIPD
Literature reported function (CDK4 [2]): Normal

signal of p16 mutant (in words) (CDK4 [1]): close to the baseline
B7: p16 H83Y: p16 (CDKN2A) mutant (protein)
chain: MEPAAGSSMEPSADWLATAAARGRVEEVRALLEAGALPNAPNSYGRRPIQVMMMGSARVAELLLLHGAEPNCADPATLTRPVYDAAREGFLDTLVVLHRAGARLDVRDAWGRLPVDLAEELGHRDVARYLRAAAGGTRGSNHARIDAAEGPSDIPD

signal of p16 mutant (in words) (CDK4 [1]): close to the baseline
B9: p16 P114L: p16 (CDKN2A) mutant (protein)
chain: MEPAAGSSMEPSADWLATAAARGRVEEVRALLEAGALPNAPNSYGRRPIQVMMMGSARVAELLLLHGAEPNCADPATLTRPVHDAAREGFLDTLVVLHRAGARLDVRDAWGRLLVDLAEELGHRDVARYLRAAAGGTRGSNHARIDAAEGPSDIPD
